The text below walks through data of patent publication US20070248536A1.

Test [1] deals with human IgG Fc (human). As to the kind of experiment: method not given; given for comparison with the ELISA value. A general note: ELISA stands for enzyme-linked immunosorbent assay.
The target in test [2] is human IgG Fc (human). Kind of test: concentration-dependent ELISA, IgG Fc coated, apparent KD.
In test [3] the target is human IgG Fc (human). Kind of test: SPR (BIACORE), value before the coupling to PE.

B1: Affilin variation SPC1-A7BB (designed binder)
chain: MGLISFSEDRAFQGRRYMCLTDCPNLQPYFSRCNSINVWSGCWMIYERPNYQGHQYFLRRGEYPDYQQWMGLSDSIRSCCLIPPHSGAYRMKIYDRDELRGQMSELTDDCLSVQDRFHLTEIHSLNVLEGSWILYEMPNYRGRQYLLRPGEYRRFLDWGAPNAKVGSLRRVMDLYLEHHHHHH
Molecule B1 came in with a Kd in the test with human IgG Fc (human) [1] of 280 nM.

B2: Affilin variation SPC1-A7_Cys (designed binder)
chain: MGLISFSEDRAFQGRRYMCLTDCPNLQPYFSRCNSINVWSGCWMIYERPNYQGHQYFLRRGEYPDYQQWMGLSDSIRSCCLIPPHSGAYRMKIYDRDELRGQMSELTDDCLSVQDRFHLTEIHSLNVLEGSWILYEMPNYRGRQYLLRPGEYRRFLDWGAPNAKVGSLRRVMDLYLESGGGGGGSCHHHHHHHHHH
As for B2, the results for the Kd in the test with human IgG Fc (human) [2] and with human IgG Fc (human) [3] were 233 nM and 100 nM, respectively.
